B1: YDL002C: GST fusion yeast protein on proteome chip (protein, UniProt Q03435 2-203, looked up)
Non-histone protein 10: SVEEKKRRLEELKDQNVVLGLAIQRSRLSVKRLKLEYGVLLERLESRIELDPELNCEDPLPTLASFKQELLTKPFRKSKTKRHKVKERDPNMPKRPTNAYLLYCEMNKERIRQNGSLDVTRDLAEGWKNLNEQDRKPYYKLYSEDRERYQMEMEIYNKKISNIDADDDKEENEQKIKNNEEGSSTKVADSKGGEDGSLVSSN
modifications: GST fusion
notes: GST fusion yeast protein on proteome chip
B2: YMR072W: GST fusion yeast protein on proteome chip (protein, UniProt Q02486 27-183, looked up)
ARS-binding factor 2, …: KASKRTQLRNELIKQGPKRPTSAYFLYLQDHRSQFVKENPTLRPAEISKIAGEKWQNLEADIKEKYISERKKLYSEYQKAKKEFDEKLPPKKPAGPFIKYANEVRSQVFAQHPDKSQLDLMKIIGDKWQSLDQSIKDKYIQEYKKAIQEYNARYPLN
modifications: GST tag
notes: as for B1
B3: YKL140W: GST fusion yeast protein on proteome chip (protein, UniProt P34163 1-548, looked up)
Sterol esterase TGL1: MYFPFLGRLSITDYIIVVLVYIESIISSVLKLIPQPMINLFEWLINFSTSSDDNTIEEKLRSAPTIHEMCAIFDISVEDHLVRTEDNYILTLHRIPPISKNRFNNKVVYLHHGLLMCSDVWCCNIERHKNLPFVLHDLGYDVWMGNNRGNKYSTAHLNKPPKSNKFWDFSIDEFAFFDIPNSIEFILDITKVDKVICIGFSQGSAQMFAAFSLSEKLNRKVSHFIAIAPAMTPKGLHNRIVDTLAKSSPGFMYLFFGRKIVLPSAVIWQRTLHPTLFNLCIDIANKILFNWKSFNILPRQKIASYAKLYSTTSVKSIVHWFQILRSQKFQMFEESDNMLNSLTRPYQIANFPTRTNIKIPILLIYGGIDSLVDIDVMKKNLPFNSVFDVKVDNYEHLDLIWGKDADTLVIAKVLRFIEFFNPGNVSVKTNQLLPSASLVEELPSTTWKTTHPTHGLSYRTHSADRSPLSVQADEADEVHNADNSRFLRRVFSTSAIDEDNENEHQDDTEDQIHKEQQRRLSAYLESSKDLRQLDANSSTTALDALNKE
modifications: GST tag
notes: as for B1
B4: YDL070W: GST fusion yeast protein on proteome chip (protein, UniProt Q07442 1-638, looked up)
Bromodomain-containing factor …: MSRTNMDTRHAHSALLAAPQSATANSRSSNSSSESSSNKNNINVGVGDDSGNVSAVSIDDGPHFRDIFHYGHEENYKLASSGITNLNSSSHAHQTLSPISISNASTPESFPEHPLGLERETEPALEAEMEAEELPPHQSKYLLSSIKATKRLKDARPFLKPVDPIALNIPHYFNYVQTPMDLSLIETKLQGNVYHSVEQVTSDFKTMVDNCLNFNGPESSISSMAKRIQKYFEKKLSAMPPRVLPASALKKTSRNRKKNEDMDSPLVIRRSVSTTNDNIGESGNREGVSGGRPKRTIHPPKSKDLFDIYENSKPKSKTLQKKFRTCLKILKVLMSKKNSDINFPFLQPVDPIALNLPNYFDVVKNPMDLGTISNNLMNWKYKTIDQFVDDLNLVFYNCFQFNPEGNEVHSMGKKLKELFNFHWLENQDILNEIETDSDLEEDNYSSSYSSDDEYDDEDINENDITNPAIQYLEQKLKKMEVELQQLKRQELSKLSKERKRKHLGKTLLRRKAMKHSVDDLKKSITDKINELSDLEMNGMIRIIKNSLPADEILTSNEDEIEIDLDILDEATIARIYERYFEKKNNNNSKRKLSGNYSTAPTNKKKKTLKFLEKDEIINNNNYSDSEEDSSDSSDSDSD
modifications: GST fusion
notes: as for B1
B5: YCR105W: GST fusion yeast protein on proteome chip (protein, UniProt P25377 1-361, looked up)
NADP-dependent alcohol …: MLYPEKFQGIGISNAKDWKHPKLVSFDPKPFGDHDVDVEIEACGICGSDFHIAVGNWGPVPENQILGHEIIGRVVKVGSKCHTGVKIGDRVGVGAQALACFECERCKSDNEQYCTNDHVLTMWTPYKDGYISQGGFASHVRLHEHFAIQIPENIPSPLAAPLLCGGITVFSPLLRNGCGPGKRVGIVGIGGIGHMGILLAKAMGAEVYAFSRGHSKREDSMKLGADHYIAMLEDKGWTEQYSNALDLLVVCSSSLSKVNFDSIVKIMKIGGSIVSIAAPEVNEKLVLKPLGLMGVSISSSAIGSRKEIEQLLKLVSEKNVKIWVEKLPISEEGVSHAFTRMESGDVKYRFTLVDYDKKFHK
modifications: GST fusion
notes: as for B1
B6: YBL106C: GST fusion yeast protein on proteome chip (protein, UniProt P38163 1-1010, looked up)
Lethal(2) giant larvae …: MFKKSRHLKNVSNAIKSARVHDVSNGINSKFFDTKKICTYGINGRITVTTFDYTQSLLAVATTAGEIHVYGQKQIEVVFTLKNRPQIKHMRFIKGIYLIAVDEKSNIIVLSVHSKQILTTVFCPNSITCIETDPSLDWMLIGLESGSILIYDVDRNQMSKLKIENFQKSVFLPKERLSPVISIQWNPRDIGTILISYEHITVIYSFIDYKVKQHFFYQLEPYAPGGDLSTNIEKKRTPKVIQSLYHPNSLHILTVHEDNSLVFWDVNSGKLIHARSIFETHVNFPNPALKDCSFTETPAIFKVSWLCQRNPEYTSLLIATKATENPCLPQEITMIDLGGTPMYSVTSFDAMSKYYAKPVQQKLFSLIGKAPLINFLPLPKASPYFGGCHDTNLILLLLEDGELETLIYPAGSFSSKASIFPRSLAWVRPTVTTCIAQSVQKNLWLGMMTIAQSESFLKGGIPATRNIRRHETRSALLTGHSNGSVRIWDASHSEVTDNAVFEVNTAKVLNRATNLAIKNISFASETLELAVSSEVGDVILFKFETNKFYGQLPKSDALQLKFSRFSLDDSKTILVDVSDRGPTNVKQGFIPSTVIHAKKGAVSAIMNSNIGFVAVGFIEGTLIILDRRGPAIIFNENIRVISKAGSSYVSTVHFCVMEYGDDGFSSILMLCGTDIGELMTFKILPATNGRFEVKFTDATKTNNQGKILGINSFAKDTGYSCSATISKMQGLSKGIAIPGFVTISGANDIRLVSPGKSKDTHALFKYPIATSGLSFIPIIDGKGERKLSTIMIVLLINGDIKVLTVPELKEVKNLRCPVPLSAQYVENSSILENGDIVIRTGKFQASLISVLNESATGTNHTADISQHTPIDTLYNPDLKIGYRPQVNSLQWARGTIYCTPYQLDELLGGIERPESKYEESAIARGCISSSSSNAARKLPPGTEDHRYARPVRSSGRSNGYGVLKSVSRAIETRLDTVETTINDYATTMGQTMNDAMEETGRDMMKSAVGF
modifications: GST tag
notes: as for B1
B7: YNL125C: GST fusion yeast protein on proteome chip (protein, UniProt P53918 1-673, looked up)
Uncharacterized transporter …: MSTHSNDYFSASSGMVSETSSEVSSINSSQPVSFSKASIAAPVPCSDLHSTKSNDASRKLSISRTLTNRLNDIKKAVDDDNLQTEENSADVNKILESRFDVADAIRLQHNESVQSKLNIPVTHTTTAGASLSAPSSSAFSASSIQNDTTEHKASMDSKLMRNRLYPASTKHSGKDLEAQGITEFEPDEPTVKKVFTNKSTGQLELPPDGGYGWVVTFCVFLTMFSTWGCNASFGVDLAYYLNHDTYPGASKYDYALIAGLTVFLGQLLSPLVMALMRIIGLRTTMLFGDAVMLAAYLLASFTTKLWQLYVTQGFMVGCSISLIFVPATTVLPGWFLKKRAVAMGVSLLGTGAGGVVYGLATNKMLSDFGNTRWCLRIIGISCSISVLVAIALLKERNPTPAIGLKSPRAMFEQLKAMFSLKVITKPFVVLIALWFMFALFAYNMMVFTLSSYAISKGLSSHDASTLTAILNGSQSIGRPLMGLAGDKFGRANVTIVLTTLLTIYMFAFWIPAHTFVQLIFFSILVGSCVGVANVMNTVLIADMVKPEEFLPAWAFVNYCGAPFLLVCEVIAQALTVEKDKSNPYLHAQIFCGCCFIAALILISILREYSIRMKLTERQAMTNEKLKEWKASEYDTDSADEDWGKLKERKTKYDLLLGPGIKKYFLRMVYPMKV
modifications: GST fusion
notes: as for B1

Target: T1, FHHDbf2-H6Mob1TM9 (Saccharomyces cerevisiae, UniProt P22204+P40484)
T1 construct: made in house; host or cells: Hi5 insect cells (baculovirus)
T1 sequence (P22204 1-572): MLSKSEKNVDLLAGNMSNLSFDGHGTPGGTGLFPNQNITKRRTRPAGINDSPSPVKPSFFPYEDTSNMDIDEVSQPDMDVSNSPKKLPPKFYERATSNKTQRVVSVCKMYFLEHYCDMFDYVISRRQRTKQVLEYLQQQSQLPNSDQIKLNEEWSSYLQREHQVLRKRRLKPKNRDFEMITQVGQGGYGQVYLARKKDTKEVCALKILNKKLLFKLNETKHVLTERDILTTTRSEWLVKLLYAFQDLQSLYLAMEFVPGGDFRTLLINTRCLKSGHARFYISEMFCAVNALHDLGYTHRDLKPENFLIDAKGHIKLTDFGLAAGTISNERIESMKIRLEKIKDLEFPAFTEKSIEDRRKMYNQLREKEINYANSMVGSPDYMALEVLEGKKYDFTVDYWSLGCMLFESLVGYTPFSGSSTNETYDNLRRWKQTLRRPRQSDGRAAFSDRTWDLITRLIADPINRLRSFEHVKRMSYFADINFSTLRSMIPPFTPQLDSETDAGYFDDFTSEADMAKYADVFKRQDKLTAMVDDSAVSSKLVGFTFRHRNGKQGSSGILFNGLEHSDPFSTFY
T1 sequence (P40484 1-314 partner): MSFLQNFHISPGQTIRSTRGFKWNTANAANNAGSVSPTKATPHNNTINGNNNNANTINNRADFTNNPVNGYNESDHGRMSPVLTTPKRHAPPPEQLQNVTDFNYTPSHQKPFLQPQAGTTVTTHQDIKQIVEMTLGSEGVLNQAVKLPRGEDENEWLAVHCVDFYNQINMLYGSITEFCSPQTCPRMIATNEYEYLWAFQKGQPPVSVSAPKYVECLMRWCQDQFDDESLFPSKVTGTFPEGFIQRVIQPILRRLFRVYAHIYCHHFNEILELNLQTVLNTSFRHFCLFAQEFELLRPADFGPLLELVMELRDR
Assay: Yeast proteome chip assay
Type: biochemical
Conditions: Table 3; GST fusion proteins on proteome chip, [γ-33P]ATP, chips in duplicate, computer analysis
Experimental: The relatively low sequence complexity of the Dbf2 phosphorylation motif diminished the power of using genome-wide bioinformatics screens to identify putative substrates. Accordingly, we carried out a proteome array screen to identify putative yeast substrates. […] After taking into account the proteins phosphorylated in the negative controls, 67 proteins were determined to be putative Dbf2-Mob1 substrates (Table 3).
Yeast proteome microarrays were prepared as previously described. Overexpressed GST-tagged yeast proteins were purified from ~4,400 yeast strains and spotted on slides. To determine the optimal amount of kinase to use for probing proteome chips, we performed trial assays as described (J. Ptacek et al., submitted). […] The full proteome array was probed with 4 μl ^FHHDbf2-^H6Mob1^TM9 in 200 μl of DKB supplemented with [γ-^33P]ATP. As a control, ^FHHDbf2(N305A)-^H6Mob1^TM9 was used to probe the proteome array. […] To control for autophosphorylated proteins, the proteome array was probed with 200 μl of DKB supplemented with [γ-^33P]ATP. Proteome chips were assayed in duplicate in each case. Data analysis was performed as described (J. Ptacek et al., submitted). Briefly, signals were analyzed by a computer algorithm designed to normalize background and identify signals as positive if 3 of 4 spots (each protein is spotted twice on each slide and each kinase or control was tested on 2 slides) were 2 standard deviations above background and the fourth spot was 1.5 standard deviations above background.

Molecule	Slide Signal (after normalization)
B1	0.8102
B2	0.7585
B3	0.6321
B4	0.6162
B5	0.6146
B6	0.5988
B7	0.5694
